Results from PMC4163360.

Target: selenomethionyl (Se-Met) labeled MJ0927 (Methanocaldococcus jannaschii)
Experiment: crystal structure; Se-Met MJ0927, P2_(1) crystal form, MAD phasing; crystals grown at 4°C, 5% PEG3350, 0.1 M sodium acetate pH 5.0, 0.3 M sodium formate, 0.1 M ammonium sulfate, 3% PGA-LM; six molecules in the asymmetric unit

stoichiometry N: 6
Substance: selenomethionyl (Se-Met) labeled MJ0927 (natural protein)
